# Test results taken from patent US20190016812A1 (AbbVie / Abbott, published 2019).
# B1: SC113.14 (antibody, mouse IgG2a, V domains shown)
# VH: QVQLQQSGAELVKPGASVKLSCKASGYTFTEYTIHWVKQKSGQGLEWIGWFYPGSGSLKFNEKFKDKATLTADISSNTVYMELSRLTSEDSAVYFCARHEDFFYFDSYTMDYWGQGTSVTVSS
# VL: QIVLTQSPAIMSASPGEKVTLTCSASSSVSSSYLYWYQQKPGSSPKLWIYSTSKLSSGVPARFSGSGSGTSYSLTISSMEAEDAASYFCHQWSTYPWTFGGGTKLEIK
# notes: mouse IgG2a
# B2: SC113.15 (antibody, mouse IgG1, V domains shown)
# VH: QVQLQQSGAELAKPGASVKMSCKASGYTFTTFWMHWLKQRPGQGLEWIGYINPRTYFTYYNQKFEDQATLTADESSSTAYMQLNSLTSEDSAVYYCATHHGGFDVWGAGTTVTVSS
# VL: DVVMTQTPLSLPVSLGDQASISCRSSQSLVHSNGDTYLHWYLQKPGQSPKLLIYKVSNRFSGVPDRFSGSRSGTDFTLKISRVEAEDLGIYFCSQSTHVPYTFGGGTKLEIK
# notes: mouse IgG1
# Key:
# [1] = biological target: cynomolgus TNFSF9 (cTNFSF9), full length, overexpressed on HEK293T cells (cynomolgus); assay: cell-based or functional assay
# [2] = biological target: human TNFSF9 (hTNFSF9), full length, overexpressed on HEK293T cells (human, UniProt P41273 1-254); assay: cell-based or functional assay
# [3] = biological target: T1, cynomolgus TNFSF9 (cTNFSF9) protein, soluble recombinant (cynomolgus); assay: SPR (Biacore)
# T1 construct: extracellular domain; also called cynomolgus TNFSF9 protein
# [4] = biological target: T2, hTNFSF9-His (monomeric human TNFSF9 extracellular domain with 9x-Histidine tag) (human, UniProt P41273 50-254); assay: SPR (Biacore)
# T2 construct: also called hTNFSF9-His protein; monomeric hTNFSF9-His antigen
# [5] = biological target: T3, human TNFSF9 (R&D Systems; #2295-4L-025/CF) (human, UniProt P41273 71-254, limits assumed); assay: MSD ELISA: TNFSF9 + 1 ug/mL antibody, binding to coated TNFRSF9
# T3 construct: also called TNFSF9 (ligand); TNFSF9 ligand
# T3 sequence (P41273 71-254 limits assumed): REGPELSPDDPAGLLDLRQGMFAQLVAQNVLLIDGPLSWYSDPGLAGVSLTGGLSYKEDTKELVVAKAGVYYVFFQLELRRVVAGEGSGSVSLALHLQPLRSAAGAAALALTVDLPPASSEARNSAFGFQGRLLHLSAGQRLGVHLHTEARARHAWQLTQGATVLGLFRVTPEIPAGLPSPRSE
# T2 sequence (P41273 other isoform, or with tags, fused parts or gaps): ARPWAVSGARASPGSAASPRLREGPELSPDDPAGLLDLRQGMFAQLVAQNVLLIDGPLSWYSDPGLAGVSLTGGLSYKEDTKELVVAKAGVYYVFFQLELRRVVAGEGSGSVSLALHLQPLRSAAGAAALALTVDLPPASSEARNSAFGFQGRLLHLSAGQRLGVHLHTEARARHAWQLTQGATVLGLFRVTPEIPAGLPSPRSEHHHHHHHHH
Binder,"% live cells, Fab-saporin killing, 250 pM antibody [1]","% live cells, Fab-saporin killing, 250 pM antibody [2]",Kd [3],Kd [4],% inhibition of ligand receptor interaction [5]
B1,11%,10.2%,7 nM,3 nM,-34%
B2,107%,20.2%,11 nM,5 nM,42%
